Target: the molecule itself
Experiment: cryo-EM structure; single-particle cryo-EM with Volta phase plate, frozen-hydrated hPrx3 in thick ice; two data sets (7.3 Å and 4.4 Å reconstructions); D6 symmetry imposed in 3D classification of the first data set

B1: human peroxiredoxin-3 (natural protein, UniProt P30048 62-256, looked up)
chain: APAVTQHAPYFKGTAVVNGEFKDLSLDDFKGKYLVLFFYPLDFTFVCPTEIVAFSDKANEFHDVNCEVVAVSVDSHFSHLAWINTPRKNGGLGHMNIALLSDLTKQISRDYGVLLEGSGLALRGLFIIDPNGVIKHLSVNDLPVGRSVEETLRLVKAFQYVETHGEVCPANWTPDSPTIKPSPAASKEYFQKVNQ
notes: peroxiredoxin-3 (Prx3), human mitochondrial isoform; also called hPrx3; Prx3; source: Rosetta (DE3) cells (Novagen), purified (HisTrap, Superdex 200 gel filtration, TEV cleavage of the His-tag); copies: 12
  stoichiometry N: 12
